Here are results for 16 molecules from US20240400670A1 (JIANGSU HENGRUI PHARMACEUTICALS, published 2024).

In test [1] the target is T1, human IL-23 (Sino Biological, CT048-H08H) (human, UniProt Q9NPF7 20-189; P29460 23-328).
T1 sequence (looked up) 1: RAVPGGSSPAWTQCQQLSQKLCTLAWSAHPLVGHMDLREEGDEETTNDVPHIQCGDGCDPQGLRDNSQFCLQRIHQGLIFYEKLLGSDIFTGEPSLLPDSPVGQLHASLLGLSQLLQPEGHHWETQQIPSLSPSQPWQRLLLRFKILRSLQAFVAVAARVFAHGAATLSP
T1 sequence (looked up) 2: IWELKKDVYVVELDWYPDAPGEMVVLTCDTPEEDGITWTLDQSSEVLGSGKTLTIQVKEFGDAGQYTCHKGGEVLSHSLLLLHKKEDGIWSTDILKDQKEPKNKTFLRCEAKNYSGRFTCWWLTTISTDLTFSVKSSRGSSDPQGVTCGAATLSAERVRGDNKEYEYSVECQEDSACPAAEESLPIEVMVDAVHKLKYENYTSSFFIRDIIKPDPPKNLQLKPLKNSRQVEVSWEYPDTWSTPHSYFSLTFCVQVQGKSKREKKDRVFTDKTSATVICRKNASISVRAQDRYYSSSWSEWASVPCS
Description: cell-based or functional assay.

Test [2] addresses T1, human IL-23 (Sino Biological, …). The test is described as follows: SPR (Biacore), Protein A capture of sample, 1:1 model. How it is done: A certain amount of test sample was subjected to affinity capture by a biosensor chip Protein A (GE, 29127556), and then antigens at a series of concentration gradients were allowed to flow on the surface of the chip. The reaction signals were detected in real time by using Biacore (GE, 8 K) to obtain association and dissociation curves. After the dissociation was completed for each cycle, the biochip was washed and regenerated with a 10 mM glycine-hydrochloric acid solution at pH 1.5 (GE, BR-1003-54). Fitting was performed based on the experimental data using BlAevaluation version 4.1 software with a 1:1 model, and affinity values were obtained.
A general note: Surface plasmon resonance follows binding to a sensor surface in real time, without labels.

Test [3] shares this target. Description: competition ELISA, blocks IL-23/IL-23R; IL-23R coated, biotin-IL-23 + sample gradient. The protocol: The specific procedures are as follows:
The receptor protein was diluted to 2 μg/mL with a PBS (BasalMedia, B320) buffer at pH 7.4 and added to a 96-well microplate (Corning, 3590) at 100 μL/well. The plate was incubated at 4° C. overnight. After the liquid was discarded, 1 % Casein blocking solution (Thermo, 37528) was added at 200 μL/well for blocking, and the plate was incubated at 37° C. for 2 h. After the blocking was complete, the blocking solution was discarded, and the plate was washed 3 times with a PBST buffer (pH 7.4 PBS containing 0.1 % tween-20) for later use. After the biotin-labeled ligand protein at a fixed concentration was mixed with an antibody or fusion protein diluted in a gradient, the mixture was pre-incubated at 37° C. for 30 min and then added to the blocked microplate. The plate was incubated at 37° C. for 1.5 h. After the incubation was complete, the plate was washed 3 times with PBST. Streptavidin-HRP (Invitrogen, 434323, diluted at 1:4000) was added at 100 μL/well, and the plate was incubated at 37° C. for 1 h. The supernatant was removed. After the plate was washed 3 times with PBST, TMB chromogenic substrate (KPL, 5120-0077) was added at 100 μL/well, and the plate was incubated at room temperature for 10⁻¹⁵ min. 1 M H₂SO₄ was added at 50 μL/well to terminate the reaction. The absorbance values at 450 nm were taken using a microplate reader. Curves for the inhibition of binding of the ligands to the receptors were fitted using software, and the IC₅₀ values were calculated.
A general note: ELISA stands for enzyme-linked immunosorbent assay.

Substitutions are numbered along the chain they refer to.

B1: Hu38-10 (antibody, human IgG1, kappa, L234A L235A, V domains shown)
VH: EFQLVQSGAEVKKPGASVKVSCKASGYSFTDHNMNWVRQAPGQRLEWMGVINPNYGTTTYNQKFKGRVTITVDQSASTAYMELSSLRSEDTAVYYCARRGFAYWGQGTLVTVSS
VL: DIVMTQTPLSLPVTPGEPASISCRSSKSLLYKDGKTYLNWFLQKPGQSPQLLIYLMSTRASGVPDRFSGSGSGTDLTLKISRVEAEDVGVYYCQQIAEYPFTFGSGTKLEIKR
notes: humanized mAb38, IgG1/kappa
The Kd is the concentration at which binding is half-saturated. Read a high Kd as lower affinity. Usually koff stands for a measure of how fast the partners let go of each other. The low end stands for a long-lived complex, the high end for a short-lived complex. One may read the kon as a measure of how fast the partners come together. Lower therefore signals slow association. In the case of B1, the “Activity in inhibiting proliferation of BaF3-IL-23R cells (IC50, nM)” value (from here on “Activity in inhibiting proliferation”) in test [1] came out at 0.116 nM. In test [2], this molecule had a Kd of 0.197 nM, a koff of 7.07e-05 s⁻¹ and a kon of 358000 M⁻¹ s⁻¹.

B2: Hu38-7 (antibody, human IgG1, kappa, L234A L235A, V domains shown)
VH: B1 VH with F2V, Q74T
VL: B1 VL with M4I, K44R
notes: humanized mAb38, IgG1/kappa
For the molecule B2, the “Activity in inhibiting proliferation” value in test [1] came to 0.179 nM. In test [2], this molecule came in with a Kd of 0.152 nM, a koff of 7.41e-05 s⁻¹ and a kon of 486000 M⁻¹ s⁻¹.

B3: Hu38-5 (antibody, human IgG1, kappa, L234A L235A, V domains shown)
VH: B1 VH with F2V, Q74T
VL: B1 VL with F41Y, L76F
notes: humanized mAb38, IgG1/kappa
Broadly, the IC50 is the concentration that gives 50% inhibition. B3: the “Activity in inhibiting proliferation” value in test [1] worked out at 0.148 nM. In test [2], this molecule gave a Kd of 0.277 nM, a koff of 5.82e-05 s⁻¹ and a kon of 210000 M⁻¹ s⁻¹. Moreover, the IC50 in test [3] is 0.228 nM.

B4: Hu38-15 (antibody, human IgG1, kappa, L234A L235A, V domains shown)
VH: B1 VH with R44S
VL: B1 VL with M4I, K44R
notes: humanized mAb38, IgG1/kappa
On to B4, for which the “Activity in inhibiting proliferation” value in test [1] was found to be 0.149 nM. Further, in test [2], the affinity, expressed as Kd, was 0.168 nM; the koff came out at 8.3e-05 s⁻¹; the kon was 494000 M⁻¹ s⁻¹.

B5: Hu38-1 (antibody, human IgG1, kappa, L234A L235A, V domains shown)
VH: B1 VH with S28T, Q74T
VL: B1 VL with F41Y, L76F
notes: humanized mAb38, IgG1/kappa
Consider B5, for which the “Activity in inhibiting proliferation” value in test [1] was determined as 0.168 nM. For the same molecule, in test [2], binding was put at a Kd of 0.206 nM, the koff was 4.56e-05 s⁻¹ and the kon came to 222000 M⁻¹ s⁻¹.

B6: Hu38-12 (antibody, human IgG1, kappa, L234A L235A, V domains shown)
VH: B1 VH
VL: B1 VL with S57Q
notes: humanized mAb38, IgG1/kappa
With B6, in test [1], the “Activity in inhibiting proliferation” value was 0.184 nM. In test [2], the Kd was determined as 0.191 nM, the koff is 6.12e-05 s⁻¹ and the kon turned out to be 321000 M⁻¹ s⁻¹.

B7: Hu38-6 (antibody, human IgG1, kappa, L234A L235A, V domains shown)
VH: B1 VH with F2V, Q74T
VL: B1 VL
notes: humanized mAb38, IgG1/kappa
For B7, the “Activity in inhibiting proliferation” value in test [1] amounted to 0.136 nM. Also, in test [2], the Kd was 0.143 nM, the koff amounted to 3.91e-05 s⁻¹ and the kon was 273000 M⁻¹ s⁻¹.

B8: Hu38-14 (antibody, human IgG1, kappa, L234A L235A, V domains shown)
VH: B1 VH with R44S
VL: B1 VL
notes: humanized mAb38, IgG1/kappa
For B8, in test [1], the “Activity in inhibiting proliferation” value worked out at 0.152 nM. Further, in test [2], the Kd came to 0.175 nM, the koff turned out to be 5.45e-05 s⁻¹ and the kon was found to be 312000 M⁻¹ s⁻¹.

B9: Hu38-3 (antibody, human IgG1, kappa, L234A L235A, V domains shown)
VH: B1 VH with S28T, Q74T
VL: B1 VL with M4I, K44R
notes: humanized mAb38, IgG1/kappa
As for B9, the “Activity in inhibiting proliferation” value in test [1] was 0.174 nM. Besides, in test [2], the affinity, expressed as Kd, was 0.113 nM; the koff worked out at 4.44e-05 s⁻¹; the kon was determined as 393000 M⁻¹ s⁻¹.

B10: Hu38-2 (antibody, human IgG1, kappa, L234A L235A, V domains shown)
VH: B1 VH with S28T, Q74T
VL: B1 VL
notes: humanized mAb38, IgG1/kappa
On to B10, for which the “Activity in inhibiting proliferation” value in test [1] is 0.138 nM. In test [2], the Kd is 0.18 nM, the koff came to 6.05e-05 s⁻¹ and the kon is 337000 M⁻¹ s⁻¹. For the same molecule, the IC50 in test [3] worked out at 0.465 nM.

B11: Hu38-13 (antibody, human IgG1, kappa, L234A L235A, V domains shown)
VH: B1 VH with R44S
VL: B1 VL with F41Y, L76F
notes: humanized mAb38, IgG1/kappa
In the case of B11, in test [1], the “Activity in inhibiting proliferation” value was 0.187 nM. Moreover, in test [2], the Kd is 0.27 nM, the koff came out at 5.56e-05 s⁻¹ and the kon amounted to 206000 M⁻¹ s⁻¹. In addition, the IC50 in test [3] was determined as 0.455 nM.

B12: Hu38-9 (antibody, human IgG1, kappa, L234A L235A, V domains shown)
VH: B1 VH
VL: B1 VL with F41Y, L76F
notes: humanized mAb38, IgG1/kappa
Take B12: in test [1], the “Activity in inhibiting proliferation” value came to 0.198 nM. In test [2], this molecule yielded a Kd of 0.283 nM, a koff of 6.68e-05 s⁻¹ and a kon of 236000 M⁻¹ s⁻¹. Also, the IC50 in test [3] stood at 0.496 nM.

B13: Hu38-11 (antibody, human IgG1, kappa, L234A L235A, V domains shown)
VH: B1 VH
VL: B1 VL with M4I, K44R
notes: humanized mAb38, IgG1/kappa
B13: the “Activity in inhibiting proliferation” value in test [1] was determined as 0.168 nM. In test [2], the Kd was found to be 0.176 nM, the koff worked out at 6.15e-05 s⁻¹ and the kon amounted to 349000 M⁻¹ s⁻¹.

B14: Hu38-8 (antibody, human IgG1, kappa, L234A L235A, V domains shown)
VH: B1 VH with F2V, Q74T
VL: B1 VL with S57Q
notes: humanized mAb38, IgG1/kappa
On to B14, for which the “Activity in inhibiting proliferation” value in test [1] stood at 0.174 nM. In addition, in test [2], binding was characterised by a dissociation constant (Kd) of 0.168 nM, the koff was 4.75e-05 s⁻¹ and the kon was found to be 282000 M⁻¹ s⁻¹.

B15: Hu38-16 (antibody, human IgG1, kappa, L234A L235A, V domains shown)
VH: B1 VH with R44S
VL: B1 VL with S57Q
notes: humanized mAb38, IgG1/kappa
On to B15, for which, in test [1], the “Activity in inhibiting proliferation” value was determined as 0.146 nM. Besides, in test [2], the affinity, expressed as Kd, was 0.161 nM; the koff came to 5.49e-05 s⁻¹; the kon is 341000 M⁻¹ s⁻¹.

B16: risankizumab (antibody, human IgG1, kappa, L234A L235A, V domains shown)
VH: QVQLVQSGAEVKKPGSSVKVSCKASGYTFTDQTIHWMRQAPGQGLEWIGYIYPRDDSPKYNENFKGKVTITADKSTSTAYMELSSLRSEDTAVYYCAIPDRSGYAWFIYWGQGTLVTVSS
VL: DIQMTQSPSSLSASVGDRVTITCKASRDVAIAVAWYQQKPGKVPKLLIYWASTRHTGVPSRFSGSGSRTDFTLTISSLQPEDVADYFCHQYSSYPFTFGSGTKLEIKR
notes: control anti-IL-23 antibody; also called control molecule
Regarding B16, in test [2], the Kd stood at 0.0651 nM, the koff was found to be 4.91e-05 s⁻¹ and the kon came out at 754000 M⁻¹ s⁻¹. Besides, the IC50 in test [3] was 0.61 nM.
